Assay results taken from patent publication US20130209464A1.

Target: HIV-1 MN strain envelope (Env) on Env-pseudotyped virus (HIV-1 MN strain) (UniProt P05877)
Assay: cell-based or functional assay

Chain of HIV-1 MN strain envelope (Env) on Env-pseudotyped virus (HIV-1 MN strain) (P05877 32-856 limits assumed): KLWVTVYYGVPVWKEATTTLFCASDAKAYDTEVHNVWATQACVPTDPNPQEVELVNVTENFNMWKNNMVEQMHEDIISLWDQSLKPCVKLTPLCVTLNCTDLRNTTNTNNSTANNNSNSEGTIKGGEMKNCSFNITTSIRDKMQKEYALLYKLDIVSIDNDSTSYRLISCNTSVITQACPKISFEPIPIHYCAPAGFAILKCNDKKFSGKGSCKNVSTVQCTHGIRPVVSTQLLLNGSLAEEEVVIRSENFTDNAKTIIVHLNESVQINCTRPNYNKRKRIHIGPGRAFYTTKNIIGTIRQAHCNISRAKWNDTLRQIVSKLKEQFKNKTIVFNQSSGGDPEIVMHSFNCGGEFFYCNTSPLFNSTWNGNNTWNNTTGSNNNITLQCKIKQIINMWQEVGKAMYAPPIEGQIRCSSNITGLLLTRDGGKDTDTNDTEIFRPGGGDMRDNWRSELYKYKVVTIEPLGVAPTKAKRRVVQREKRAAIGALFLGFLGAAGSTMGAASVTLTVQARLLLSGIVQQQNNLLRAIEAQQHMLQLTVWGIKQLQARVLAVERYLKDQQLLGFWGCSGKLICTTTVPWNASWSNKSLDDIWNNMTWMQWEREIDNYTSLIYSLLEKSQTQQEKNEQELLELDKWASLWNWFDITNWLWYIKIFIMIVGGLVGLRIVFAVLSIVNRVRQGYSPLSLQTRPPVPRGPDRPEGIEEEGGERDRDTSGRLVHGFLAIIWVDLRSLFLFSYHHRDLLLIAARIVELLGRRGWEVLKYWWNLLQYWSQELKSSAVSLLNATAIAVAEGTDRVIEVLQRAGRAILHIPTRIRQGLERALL

Which 50% inhibitory concentration (IC50), neutralization of Env-pseudotyped virus, TZM-bl luciferase reporter assay does the source give for “native actinohivin (AH) polypeptide (from UniProt Q9KWN0 47-160)” here?
Its 50% inhibitory concentration (IC50), neutralization of Env-pseudotyped virus, TZM-bl luciferase reporter assay is 0.5 µg/mL.
